Experimental data published in paper PMC6156364, “Bioinformatic and in vitro Analyses of Arabidopsis Starch Synthase 2 Reveal Post-translational Regulatory Mechanisms” (Frontiers in Plant Science, 2018).

Key:
Assay in all cases: SEC; gel permeation chromatography of ArcticExpress bacterial lysates on Superdex 20/300 GL in rupturing buffer (20 mM Tricine pH 7.5, 7.5 mM MgCl2, 1 mM DTT), 0.25 ml/min; fractions immunoblotted with anti-S-tag; wild type also pretreated with CKII + 1 mM ATP or with CIP
[1] = molecular target: recombinant S-tagged Arabidopsis SS2 N-terminal region polypeptide (NT) (Arabidopsis thaliana) (UniProt Q9MAC8)
[2] = molecular target: recombinant S-tagged Arabidopsis SS2 N-terminal truncation TRU1 (Arabidopsis thaliana) (UniProt Q9MAC8)
[3] = molecular target: the molecule itself

Question: With “recombinant S-tagged Arabidopsis SS2 N-terminal region polypeptide (NT) (from UniProt Q9MAC8 56-240) (domain or fragment)” as the molecule, how does the stoichiometry N [1] read?
Answer: The stoichiometry N was > 6.

Question: For “recombinant S-tagged Arabidopsis SS2 N-terminal truncation TRU1 (from UniProt Q9MAC8 57-792) (domain or fragment)”, which stoichiometry N [2] is on record?
Answer: Its stoichiometry N is 2.

B1: recombinant S-tagged mature Arabidopsis thaliana starch synthase 2 (wild type) (enzyme, UniProt Q9MAC8 55-792, looked up)
chain: KCVSRVEASGSDDDEPEDALQATIDKSKKVLAMQRNLLHQIAERRKLVSSIKESTPDLDDAKASSKQESASSVNANTDATKKEIMDGDANGSVSPSTYGKSSLSKEPEAKTFSPSTESLKNRKQSSASVISSSPVTSPQKPSDVATNGKPWSSVVASSVDPPYKPSSVMTSPEKTSDPVTSPGKPSKSRAGAFWSDPLPSYLTKAPQTSTMKTEKYVEKTPDVASSETNEPGKDEEKPPPLAGANVMNVILVAAECAPFSKTGGLGDVAGALPKSLARRGHRVMVVVPRYAEYAEAKDLGVRKRYKVAGQDMEVMYFHAFIDGVDFVFIDSPEFRHLSNNIYGGNRLDILKRMVLFCKAAVEVPWYVPCGGVCYGDGNLAFIANDWHTALLPVYLKAYYRDHGIMKYTRSVLVIHNIAHQGRGPVDDFSYVDLPSHYLDSFKLYDPVGGEHFNIFAAGLKAADRVLTVSHGYSWEVKTLEGGWGLHNIINENDWKFRGIVNGIDTQEWNPEFDTYLHSDDYTNYSLENLHIGKPQCKAALQKELGLPVRPDVPLIGFIGRLDHQKGVDLIAEAVPWMMSQDVQLVMLGTGRPDLEEVLRQMEHQYRDKARGWVGFSVKTAHRITAGADILLMPSRFEPCGLNQLYAMNYGTIPVVHAVGGLRDTVQQFDPYSETGLGWTFDSAEAGKLIHALGNCLLTYREYKESWEGLQRRGMTQDLSWDNAAEKYEEVLVAAKYHW
notes: Cloned into pET29a; Predicted 85 kDa; also called SS2; AtSS2; source: E. coli ArcticExpress; in bacterial lysate (GPC); not shown: S-tag, N-terminal, kept
Question: For B1, which “stoichiometry N” value [3] is on record?
Answer: Its value is 2.
